According to patent US20210403595 (published 2021):

T1: cynomolgus CD3 on T cells (cynomolgus monkey)
T1 chain: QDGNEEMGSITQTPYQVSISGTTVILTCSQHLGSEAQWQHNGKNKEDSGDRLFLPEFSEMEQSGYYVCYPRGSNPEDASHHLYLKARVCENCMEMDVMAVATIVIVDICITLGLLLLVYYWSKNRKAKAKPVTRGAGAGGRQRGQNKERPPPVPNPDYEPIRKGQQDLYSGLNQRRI


Assays:
[1] = target: human CD3 on Jurkat cells (human); test: FACS
human PSMA on cells = human PSMA on cells (human); test: FACS, B16F10.9/PSMA
[2] = target: T1, cynomolgus CD3 on T cells; test: FACS
[3] = target: human CD3 epsilon/delta heterodimer, Fc-tagged (human); test: SPR, 37C
Sequence of human CD3 epsilon/delta heterodimer, Fc-tagged (human) (chain, as listed by the source mutant, chain 1 of 2): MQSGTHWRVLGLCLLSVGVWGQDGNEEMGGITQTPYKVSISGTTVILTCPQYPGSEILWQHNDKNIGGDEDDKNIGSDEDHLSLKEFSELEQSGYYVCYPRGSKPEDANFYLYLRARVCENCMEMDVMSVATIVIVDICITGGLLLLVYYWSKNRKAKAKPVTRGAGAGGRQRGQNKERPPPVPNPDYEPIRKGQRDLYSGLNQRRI
Sequence of human CD3 epsilon/delta heterodimer, Fc-tagged (human) (chain, as listed by the source mutant, chain 2 of 2): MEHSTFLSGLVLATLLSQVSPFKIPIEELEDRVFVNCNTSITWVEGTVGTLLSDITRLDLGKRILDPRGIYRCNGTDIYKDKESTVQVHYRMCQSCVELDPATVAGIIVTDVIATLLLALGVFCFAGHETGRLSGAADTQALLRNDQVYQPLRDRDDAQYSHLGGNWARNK

Sequence of human CD3 on Jurkat cells (human) (chain, as listed by the source, chain 1 of 2): as the sequence (chain, as listed by the source mutant, chain 1 of 2) above
Sequence of human CD3 on Jurkat cells (human) (chain, as listed by the source, chain 2 of 2): as the sequence (chain, as listed by the source mutant, chain 2 of 2) above
Sequence of human PSMA on cells (human) (A4UU12 whole entry): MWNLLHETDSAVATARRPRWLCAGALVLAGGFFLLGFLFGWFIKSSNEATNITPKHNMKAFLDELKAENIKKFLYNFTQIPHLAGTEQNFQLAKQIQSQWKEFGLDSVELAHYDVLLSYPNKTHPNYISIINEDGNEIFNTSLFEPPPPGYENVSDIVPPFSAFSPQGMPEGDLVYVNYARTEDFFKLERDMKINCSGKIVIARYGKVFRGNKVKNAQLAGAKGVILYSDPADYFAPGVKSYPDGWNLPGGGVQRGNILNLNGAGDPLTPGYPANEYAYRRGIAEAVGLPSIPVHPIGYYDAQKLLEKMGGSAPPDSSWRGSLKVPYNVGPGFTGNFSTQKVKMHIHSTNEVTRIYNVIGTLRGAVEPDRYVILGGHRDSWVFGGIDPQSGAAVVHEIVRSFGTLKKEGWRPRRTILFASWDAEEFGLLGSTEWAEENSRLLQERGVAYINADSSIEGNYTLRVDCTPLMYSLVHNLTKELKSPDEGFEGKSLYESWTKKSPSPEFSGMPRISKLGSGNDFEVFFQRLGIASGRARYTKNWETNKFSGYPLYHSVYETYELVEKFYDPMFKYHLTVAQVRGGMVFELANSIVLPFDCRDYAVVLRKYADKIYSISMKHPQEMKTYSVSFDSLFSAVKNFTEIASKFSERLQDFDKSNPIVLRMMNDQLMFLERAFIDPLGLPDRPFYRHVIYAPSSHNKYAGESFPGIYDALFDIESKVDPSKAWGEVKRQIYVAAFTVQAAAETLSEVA

EC50 (human PSMA on cells) [nM]	Binder	also measured
	BSPSMA/CD3-001 CD3 arm (antibody, V domains shown) VH: EVQLVESGGGLVQPGRSLRLSCVASGFTFADFTMHWVRQAPGKGLEWVSGISWNSNSIDYADSVKGRFTISRDNAKKSLFLQMSSLRAEDTALYYCVKDRSGYSRFYYGMDVWGQGTTVTVSS VL: EIVMTQSPATLSVSPGERAILSCRASQNINSNLAWYQQKPGQAPRLLIYGASTRATGVPARFSGSGSGTEFTLTIRSLQSEDFAVYYCQQYYNWPITFGHGTRLEIK	EC50 [1]: 39.1 nM
1.3	BSPSMA/CD3-1400 PSMA arm (antibody, V domains shown) VH: QVQLVESGGGVVQPGRSLRLSCAASGFTFSSYGMHWVRQAPGKGLEWVAVISYAGNNKYYADSVKGRFTVSRDNSKKTLYLQMNSLRSEDTAVYYCAKDSYYDFLTDPDVLDIWGQGTMVTVSS VL: not shown	
1.14	BSPSMA/CD3-2100 PSMA arm (antibody, V domains shown) VH: QVQLVESGGGVVQPGRSLRLSCAASGFTFSSYGMHWVRQAPGKGLEWVAVISYAGNNKYYADSVKGRFTVSRDNSKKTLYLQMNSLRSEDTAVYYCAKDSYYDFLTDPDVLDIWGQGTMVTVSS VL: not shown	
1.34	BSPSMA/CD3-1700 PSMA arm (antibody, V domains shown) VH: QVQLVESGGGVVQPGRSLRLSCAASGFTFSSYGMHWVRQAPGKGLEWVAVISYAGNNKYYADSVKGRFTVSRDNSKKTLYLQMNSLRSEDTAVYYCAKDSYYDFLTDPDVLDIWGQGTMVTVSS VL: not shown	
1.25	BSPSMA/CD3-1300 PSMA arm (antibody, V domains shown) VH: QVQLVESGGGVVQPGRSLRLSCAASGFTFSSYGMHWVRQAPGKGLEWVAVISYAGNNKYYADSVKGRFTVSRDNSKKTLYLQMNSLRSEDTAVYYCAKDSYYDFLTDPDVLDIWGQGTMVTVSS VL: not shown	
1.72	BSPSMA/CD3-400 PSMA arm (antibody, V domains shown) VH: QVQLVESGGGVVQPGRSLRLSCAASGFTFSSYGMHWVRQAPGKGLEWVAVISYAGNNKYYADSVKGRFTVSRDNSKKTLYLQMNSLRSEDTAVYYCAKDSYYDFLTDPDVLDIWGQGTMVTVSS VL: not shown	
1.88	BSPSMA/CD3-200 PSMA arm (antibody, V domains shown) VH: QVQLVESGGGVVQPGRSLRLSCAASGFTFSSYGMHWVRQAPGKGLEWVAVISYAGNNKYYADSVKGRFTVSRDNSKKTLYLQMNSLRSEDTAVYYCAKDSYYDFLTDPDVLDIWGQGTMVTVSS VL: not shown	
1.03	BSPSMA/CD3-1600 PSMA arm (antibody, V domains shown) VH: QVQLVESGGGVVQPGRSLRLSCAASGFTFSSYGMHWVRQAPGKGLEWVAVISYAGNNKYYADSVKGRFTVSRDNSKKTLYLQMNSLRSEDTAVYYCAKDSYYDFLTDPDVLDIWGQGTMVTVSS VL: not shown	
1.9	BSPSMA/CD3-300 PSMA arm (antibody, V domains shown) VH: QVQLVESGGGVVQPGRSLRLSCAASGFTFSSYGMHWVRQAPGKGLEWVAVISYAGNNKYYADSVKGRFTVSRDNSKKTLYLQMNSLRSEDTAVYYCAKDSYYDFLTDPDVLDIWGQGTMVTVSS VL: not shown	
2.26	BSPSMA/CD3-003 PSMA arm (antibody, V domains shown) VH: QVQLVESGGGVVQPGRSLRLSCAASGFTFSSYGMHWVRQAPGKGLEWVAVISYAGNNKYYADSVKGRFTVSRDNSKKTLYLQMNSLRSEDTAVYYCAKDSYYDFLTDPDVLDIWGQGTMVTVSS VL: not shown	
2.16	BSPSMA/CD3-1800 PSMA arm (antibody, V domains shown) VH: QVQLVESGGGVVQPGRSLRLSCAASGFTFSSYGMHWVRQAPGKGLEWVAVISYAGNNKYYADSVKGRFTVSRDNSKKTLYLQMNSLRSEDTAVYYCAKDSYYDFLTDPDVLDIWGQGTMVTVSS VL: not shown	
1.35	BSPSMA/CD3-1900 PSMA arm (antibody, V domains shown) VH: QVQLVESGGGVVQPGRSLRLSCAASGFTFSSYGMHWVRQAPGKGLEWVAVISYAGNNKYYADSVKGRFTVSRDNSKKTLYLQMNSLRSEDTAVYYCAKDSYYDFLTDPDVLDIWGQGTMVTVSS VL: not shown	
1.21	BSPSMA/CD3-1500 PSMA arm (antibody, V domains shown) VH: QVQLVESGGGVVQPGRSLRLSCAASGFTFSSYGMHWVRQAPGKGLEWVAVISYAGNNKYYADSVKGRFTVSRDNSKKTLYLQMNSLRSEDTAVYYCAKDSYYDFLTDPDVLDIWGQGTMVTVSS VL: not shown	
1.31	BSPSMA/CD3-800 PSMA arm (antibody, V domains shown) VH: QVQLVESGGGVVQPGRSLRLSCAASGFTFSSYGMHWVRQAPGKGLEWVAVISYAGNNKYYADSVKGRFTVSRDNSKKTLYLQMNSLRSEDTAVYYCAKDSYYDFLTDPDVLDIWGQGTMVTVSS VL: not shown	
1.03	BSPSMA/CD3-1100 PSMA arm (antibody, V domains shown) VH: QVQLVESGGGVVQPGRSLRLSCAASGFTFSSYGMHWVRQAPGKGLEWVAVISYAGNNKYYADSVKGRFTVSRDNSKKTLYLQMNSLRSEDTAVYYCAKDSYYDFLTDPDVLDIWGQGTMVTVSS VL: not shown	
1.31	BSPSMA/CD3-004 PSMA arm (antibody, V domains shown) VH: QVQLVESGGGVVQPGRSLRLSCAASGFTFSSYGMHWVRQAPGKGLEWVAVISYAGNNKYYADSVKGRFTVSRDNSKKTLYLQMNSLRSEDTAVYYCAKDSYYDFLTDPDVLDIWGQGTMVTVSS VL: not shown	
1.16	BSPSMA/CD3-1200 PSMA arm (antibody, V domains shown) VH: QVQLVESGGGVVQPGRSLRLSCAASGFTFSSYGMHWVRQAPGKGLEWVAVISYAGNNKYYADSVKGRFTVSRDNSKKTLYLQMNSLRSEDTAVYYCAKDSYYDFLTDPDVLDIWGQGTMVTVSS VL: not shown	
2.09	BSPSMA/CD3-005 PSMA arm (antibody, V domains shown) VH: QVQLVESGGGVVQPGRSLRLSCAASGFTFSSYGMHWVRQAPGKGLEWVAVISYAGNNKYYADSVKGRFTVSRDNSKKTLYLQMNSLRSEDTAVYYCAKDSYYDFLTDPDVLDIWGQGTMVTVSS VL: not shown	
1.19	BSPSMA/CD3-1000 PSMA arm (antibody, V domains shown) VH: QVQLVESGGGVVQPGRSLRLSCAASGFTFSSYGMHWVRQAPGKGLEWVAVISYAGNNKYYADSVKGRFTVSRDNSKKTLYLQMNSLRSEDTAVYYCAKDSYYDFLTDPDVLDIWGQGTMVTVSS VL: not shown	
1.43	BSPSMA/CD3-900 PSMA arm (antibody, V domains shown) VH: QVQLVESGGGVVQPGRSLRLSCAASGFTFSSYGMHWVRQAPGKGLEWVAVISYAGNNKYYADSVKGRFTVSRDNSKKTLYLQMNSLRSEDTAVYYCAKDSYYDFLTDPDVLDIWGQGTMVTVSS VL: not shown	
	BSPSMA/CD3-1900 CD3 arm (antibody, V domains shown) VH: EVQLVESGGGLVQPGRSLRLSCAASGFTFDDYSMHWVRQAPGKGLEWVSGISWNSGSIGYADSVKGRFTISRDNAKNSLYLQMNSLRAEDTALYYCAKDGSGYGKFYHYGMDVWGQGTTVTVSS VL: not shown	EC50 [1]: 60.7 nM; binding result [2]: no binding; Kd [3]: 115 nM
	BSPSMA/CD3-2100 CD3 arm (antibody, V domains shown) VH: EVQLVESGGGLVQPGRSLRLSCAASGFTFDDYSMHWVRQAPGKGLEWVSGISWNSGSKGYADSVKGRFTISRDNAKNSLYLQMNSLRAEDTALYYCAKDGSGYGKFYYYGMDVWGQGTTVTVSS VL: not shown	EC50 [1]: 106 nM; binding result [2]: no binding; Kd [3]: 77.5 nM
	BSPSMA/CD3-900 CD3 arm (antibody, V domains shown) VH: EVQLVESGGGLVQPGRSLRLSCAASGFTFDDYSMHWVRQAPGKGLEWVSGISWNSGSKGYADSVKGRFTISRDNAKNSLYLQMNSLRAEDTALYYCAKDGSGYGKFYHYGLDVWGQGTTVTVSS VL: not shown	EC50 [1]: 274 nM; binding result [2]: no binding; Kd [3]: 113 nM
